Columns and labels:
[1] = substrate: C[n+]1cnc2c(ncn2[C@@H]2O[C@H](COP(=O)(O)O)[C@@H](O)[C@H]2O)c1N; experiment: FDH-coupled formaldehyde release demethylation assay; assay type: biochemical, human; conditions: other: substrate of ALKBH6, Michaelis-Menten; 37.0 °C
Method: (§1) NMPs including 1meAMP (Jena Bioscience, NU-1029-1,) 7meGMP (Jena Bioscience, NU-1135S), 6me-AMP (Sigma, M2780) were purchased. N-methylated deoxy-NMPs were prepared by methylating chemically synthesized 30-mer oligonucleotide containing either dA, dG, dC, or dT by MMS (5%, v/v) (0.59 M) MMS (Sigma, 129925) and purified as described before ([17]). The oligonucleotides were digested with nuclease P1 (NEB) at 37 °C for 4 h to produce deoxy-NMPs. After heat inactivating the nuclease, dNMPs were purified by HPLC and used for the demethylation reaction. N-methylated NMPs were purified similarly, using RNA as the starting material. For the demethylation reaction, ALKBH6 (1 μM) and me-dNMPs (1 mM) were mixed in the dioxygenase reaction buffer and incubated at 37 °C for 30 min. Formaldehyde release was detected by FDH-coupled DNA repair assay as described before ([32], [33]). Briefly, 1 mM NAD+ and 0.01 U FDH were added to the dioxygenase reaction buffer containing methylated nucleotide and ALKBH6. NADH generated was detected by the characteristic absorption peak (340 nm) using a 96-well multimode reader (Synergy, Biotek Instrument). Formaldehyde production was quantified from the standard curve and the initial velocities were determined using various substrate concentrations. The results were plotted and analyzed using GraphPad Prism.

[2] = substrate: C[n+]1cn([C@@H]2O[C@H](COP(=O)(O)O)[C@@H](O)[C@H]2O)c2nc(N)[nH]c(=O)c21; experiment: as above; assay type: biochemical, human; conditions: other: substrate of ALKBH6, Michaelis-Menten; 37.0 °C
Method: as §1

B1: ALKBH6 (Homo sapiens) (protein)
chain: MEEQDARVPALEPFRVEQAPPVIYYVPDFISKEEEEYLLRQVFNAPKPKWTQLSGRKLQNWGGLPHPRGMVPERLPPWLQRYVDKVSNLSLFGGLPANHVLVNQYLPGEGIMPHEDGPLYYPTVSTISLGSHTVLDFYEPRRPEDDDPTEQPRPPPRPTTSLLLEPRSLLVLRGPAYTRLLHGIAAARVDALDAASSPPNAAACPSARPGACLVRGTRVSLTIRRVPRVLRAGLLLGK
notes: His-tag; made in house
B1 showed a Km [1] of 0.96 µM, a kcat [1] of 0.18 s⁻¹ and a Km [2] of 1.03 µM. For the same protein, the kcat [2] was 0.167 s⁻¹.
